Results from article PMC2944810.

Target: GFP:2B (Grapevine fanleaf virus movement protein 2B fused to EGFP) (Grapevine fanleaf virus)
Experiment: FRET or BRET; FRET-FLIM in living N. benthamiana leaf epidermal cells after transient co-expression by agro-infiltration; GFP fusion of the movement protein as donor, RFP fusion as acceptor; fluorescence lifetime of the donor measured at tubules or plasmodesmata

## GFP:2B (Grapevine fanleaf virus movement protein 2B fused to EGFP) (natural protein)
  mean FRET (percent): 24%
